Assay results published in paper PMC11220700, “Activation and Purification of ß‐Glucocerebrosidase by Exploiting its Transporter LIMP‐2 – Implications for Novel Treatment Strategies in Gaucher's and Parkinson's Disease” (Advanced Science, 2024).
*: point of attachment. Biotin = O=C1N[C@H]2[C@H](CS[C@H]2CCCCC(=O)*)N1

Target: imiglucerase/Cerezyme (recombinant GCase, Sanofi Genzyme), P04062
Sequence (P04062 40-536): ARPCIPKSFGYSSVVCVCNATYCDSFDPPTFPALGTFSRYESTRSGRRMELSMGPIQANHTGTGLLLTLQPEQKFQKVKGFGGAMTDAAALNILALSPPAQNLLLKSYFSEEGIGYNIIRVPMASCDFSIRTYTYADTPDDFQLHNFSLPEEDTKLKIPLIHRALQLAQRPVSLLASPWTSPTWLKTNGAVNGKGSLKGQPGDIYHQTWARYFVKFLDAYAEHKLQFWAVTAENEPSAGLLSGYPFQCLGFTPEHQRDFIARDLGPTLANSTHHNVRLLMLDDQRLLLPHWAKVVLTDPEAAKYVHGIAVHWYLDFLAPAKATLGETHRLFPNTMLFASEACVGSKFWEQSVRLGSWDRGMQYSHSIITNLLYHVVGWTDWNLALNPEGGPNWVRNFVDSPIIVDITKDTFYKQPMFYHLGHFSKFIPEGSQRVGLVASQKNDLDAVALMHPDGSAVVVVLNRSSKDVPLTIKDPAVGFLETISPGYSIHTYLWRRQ

other: 2.63 fold
Binder: Biotin-KFERQGSGSQVHFLREIIEAMLKAYQSGSGYGRKKRRQRRR-NH2 [L2H5‐wt peptide (LIMP‐2‐derived helix 5 peptide)]
